# Results: IntAct's records for PubMed 37020021
# Target: T1, ncbp1_human NCBP1 (UniProt Q09161)
# T1 sequence: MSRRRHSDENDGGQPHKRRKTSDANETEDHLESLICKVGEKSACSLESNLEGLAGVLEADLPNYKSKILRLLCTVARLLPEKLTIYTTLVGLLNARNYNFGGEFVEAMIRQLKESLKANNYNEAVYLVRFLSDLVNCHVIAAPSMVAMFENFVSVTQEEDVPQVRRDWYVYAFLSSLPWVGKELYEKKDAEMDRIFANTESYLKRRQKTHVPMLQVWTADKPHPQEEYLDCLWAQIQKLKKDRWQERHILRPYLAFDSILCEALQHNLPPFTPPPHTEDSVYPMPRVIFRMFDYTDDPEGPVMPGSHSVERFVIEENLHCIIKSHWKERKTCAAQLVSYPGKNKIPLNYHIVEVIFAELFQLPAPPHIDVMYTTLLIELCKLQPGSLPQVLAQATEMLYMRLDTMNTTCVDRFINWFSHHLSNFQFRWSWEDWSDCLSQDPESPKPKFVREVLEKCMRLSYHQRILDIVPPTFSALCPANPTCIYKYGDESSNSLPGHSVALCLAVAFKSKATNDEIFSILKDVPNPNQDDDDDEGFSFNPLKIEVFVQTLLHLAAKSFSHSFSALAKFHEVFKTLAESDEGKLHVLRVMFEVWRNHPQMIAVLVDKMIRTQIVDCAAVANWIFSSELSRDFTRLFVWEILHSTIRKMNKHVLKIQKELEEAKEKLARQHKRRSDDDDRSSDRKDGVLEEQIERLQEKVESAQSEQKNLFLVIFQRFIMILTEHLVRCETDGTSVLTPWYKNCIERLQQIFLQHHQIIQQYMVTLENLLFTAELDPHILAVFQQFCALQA
row,Substance,effect of a mutation on the interaction
1,THO complex subunit 4 (Homo sapiens) (from UniProt Q86V81) F115S,decreasing interaction strength
2,THO complex subunit 4 (Homo sapiens) (from UniProt Q86V81) P170A,decreasing interaction strength
3,THO complex subunit 4 (Homo sapiens) (from UniProt Q86V81) Q165E,decreasing interaction strength
4,THO complex subunit 4 (Homo sapiens) (from UniProt Q86V81) V169A,decreasing interaction strength
